Assay results published in patent publication US20240115706A1 (LG CHEM, published 2024).
Substitutions are numbered along the chain they refer to.

T1: monkey GUCY2C-rCD4 fusion protein (Macaca fascicularis (crab-eating …, limits assumed))
T1 construct: Prepared by the same method as the human antigen; also called Cy-GUCY2C-rCD4; monkey GUCY2C recombinant antigen
T1 chain: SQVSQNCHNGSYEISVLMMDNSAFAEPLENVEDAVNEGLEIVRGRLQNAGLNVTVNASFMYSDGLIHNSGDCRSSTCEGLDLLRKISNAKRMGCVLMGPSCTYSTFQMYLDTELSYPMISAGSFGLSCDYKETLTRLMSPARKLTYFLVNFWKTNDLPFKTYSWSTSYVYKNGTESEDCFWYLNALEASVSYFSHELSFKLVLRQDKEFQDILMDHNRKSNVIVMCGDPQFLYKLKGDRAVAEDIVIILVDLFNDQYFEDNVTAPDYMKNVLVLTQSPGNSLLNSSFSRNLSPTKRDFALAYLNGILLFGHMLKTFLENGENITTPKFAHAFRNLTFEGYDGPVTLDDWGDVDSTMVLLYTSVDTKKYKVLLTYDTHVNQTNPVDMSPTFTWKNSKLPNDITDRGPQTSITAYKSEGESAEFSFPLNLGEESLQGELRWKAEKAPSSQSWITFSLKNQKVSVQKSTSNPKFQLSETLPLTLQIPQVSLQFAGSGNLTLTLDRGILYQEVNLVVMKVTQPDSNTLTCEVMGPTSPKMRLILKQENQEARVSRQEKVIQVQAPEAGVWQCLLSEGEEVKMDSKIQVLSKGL

B1: scFv A10 (scFv)
scFv: EVQLVQSGAEVKKPGSSVKVSCKASGGTFSSYAISWVRQAPGQGLEWMGGIIPIFGTANYAQKFQGRVTITADESTSTAYMELSSLRSEDTAVYYCARTRYIWGSYRAYGMDVWGQGTMVTVSSGGGGSGGGGSGGGASDIQMTQSPSSMSASVGDRVTITCRASQSISSHLNWYQQLPGNAPTLLIYYASNLQSGVPSRFSGSGSGTDFTLTISSLQPDDFATYYCQQSISLPYTFGQGTKVEIK
notes: also called 2432_01_D08; D08
B2: scFv C07 (positive control), 5F9 scFv (scFv)
scFv: EIVMTQSPATLSVSPGERATLSCRASQSVSRNLAWYQQKPGQAPRLLIYGASTRATGIPARFSGSGSGTEFTLTIGSLQSEDFAVYYCQQYKTWPRTFGQGTNVEIKASGGGGSGGGGSGGGGSGGGGSELQVQLQQWGAGLLKPSETLSLTCAVFGGSFSGYYWSWIRQPPGKGLEWIGEINHRGNTNDNPSLKSRVTISVDTSKNQFALKLSSVTAADTAVYYCARERGYTYGNFDHWGQGTLVTVSS
notes: also called 5F9 scFv-Fc
B3: scFv A12 (scFv)
scFv: EVQLVQPGAEVKKPGSSVKVSCKASGGTLSSYAISWVRQAPGQGLEWMGRIIPILGITNYAQKFQGRVTITADKSTSTAYMELSSLRSEDTAVYFCARDQRPASMDVWGQGTLVTVSSGGGGSGGGGSGGGASQSELTQPASVSGSPGQSITISCTGTSSDVGGYIYVSWYQQHPGKVPKLMIHDVSHRPSGVSNRFSGSRSGNTASLTISGLQAEDEADYFCSSYTSSNNYVFGTGTKVTVL
notes: also called 2433_01_G08
B4: scFv A02 (scFv)
scFv: B3 scFv with T227A, S228G
notes: also called 2427_01_A08
B5: scFv A04 (scFv)
scFv: B3 scFv with V233Y
notes: also called 2427_01_B02
B6: scFv C02 (scFv)
scFv: QVQLVQSGAEVKKPGSSVKVSCKASGGTFSSYTISWVRQAPGQGLEWMGRIIPILGIANYAQKFQGRVTITADKSTSTAYMELSSLRSEDTAVYYCARDRSYNWLDPWGRGTLVTVSSGGGGSGGGGSGGGASQSALTQPVSVSGSPGQSITISCTGTISDVGDYNYVSWYQQHPGKAPKLMIYDVNNRPSGVSNRFSGSKSGNTASLTISGLQAEDEADYYCSSYTSSSTLVFGGGTKLTVL
notes: also called 2437_02_H08
B7: scFv A03 (scFv)
scFv: QVQLVQSGAEVKKPGSSVKVSCKASGGTFSSYTISWVRQAPGQELEWMGRIIPILGIANYAQKFQGRVTITADKSTSTAYMELSSLRSEDTAVYYCARDYSSSWNSMDVWGQGTLVTVSSGGGGSGGGGSGGGASQSGLTQPPSASGSPGQSVTISCTGTSSDIGYYHYVSWYQQHPGKAPKLMIYEDSKRPSGISNRFSGSKSGTTASLTVSGLQAEDEAHYYCSSFTSRSTWVFGGGTQLTVL
notes: also called 2427_01_A12
B8: scFv A05 (scFv)
scFv: QVQLVQSGAEVKKPGSSVKVSCKASGGTFSSYTITWVRQAPGQGLEWMGRIIPVLGIANYAQKFQGRVTITADKSTSTAYMELSSLRSEDTAVYYCARDYSSSWNSMDVWGQGTLVTVSSGGGGSGGGGSGGGASQSGLTQPRSVSGSPGQSVTISCTGTSSDVGGYNYVSWYQQHPGKAPKLMIYDVSKRPSGVPDRFSGSKSGNTASLTVSGLHAEDEADYYCSSYAGSNNFVFGTGTKVTVL
notes: also called 2427_01_B07
B9: scFv A06 (scFv)
scFv: B8 scFv with S30G, T35S, V54I, G166A, D187E, G201A, H216Q, F234W, T238G, V242L
notes: also called 2427_01_C01
B10: scFv B07 (scFv)
scFv: EVQLVQSGAEVKRPGSSVKVSCKASGYTFTSYYMHWVRQAPGQGLEWMGIINPSGGSTSYAQKFQGRVTMTRDTSTSTVYMELSSLRSEDTAVYYCAAGTYSSGWTIDYWGQGTTVTVSSGGGGSGGGGSGGGASDIVMTQSPLSLPVTLGQPASISCRSSQSLVYTDGNTYLNWFQQRPGQSPRRLIYKVSNRDSGVPDRFSGSGSGTDFTLKISRVEAEDVGIYYCMHSKQWPPTFGGGTKVEIK
notes: also called 2436_02_F10
B11: scFv B10 (scFv)
scFv: EVQLVQSGAEVKKPGSSVKVSCKASGGTFSSYAISWVRQAPGQGLEWMGGIIPIFGTANYAQKFQGRVTITADKSTSTAYMELSSLRSEDTAVYYCARGHYYYMDVWGQGTTVTVSSGGGGSGGGGSGGGASDIVMTQSPATLSVSPGEGATLSCRASQSVSSNLAWYQQKPGRAPRLLIYGASTRATGIPARFSGSGSGTEFTLTISSLQSEDFAVYYCQQYNNWPTFGGGTKLEIK
notes: also called 2436_02_G01
B12: scFv C01 (scFv)
scFv: QMQLVQSGAEVKKPGSSVKVSCKASGGTFSSYAISWVRQAPGQGLEWMGGIIPIFGTANYAQKFQGRVTITADESTSTAYMELSSLRSEDTAVYYCVRGYSSIYYYYGMDVWGQGTMVTVSSGGGGSGGGGSGGGASQSGLTQPRSVSGSPGQSVTISCTGTSSDVGGYNYVSWYQQHPGKAPKLMIYDVSKRPSGVSDRFSGSKSGNTASLTISGLQAEDEADYYCGSYTSDGTLVFGGGTKLTVL
notes: also called 2437_02_H05

The binders below were run against T2, human GUCY2C-rCD4 fusion protein (Homo sapiens (human); Rattus norvegicus, biotinylated (site not given)) (assay: SPR (Sierra SPR-32), scFv on protein G, antigen 800-12.5 nM, 25 C).
T2 construct: GUCY2C conjugated/fused with CD4; also called Hu-GUCY2C-rCD4; human GUCY2C recombinant antigen
Method: Furthermore, the affinity to the GUCY2C antigen of the 18 kinds of scFvs produced in Example 1 was measured by SPR (Surface plasmon resonance) analysis.
SPR assay was performed with association time 2 min and dissociation time 10 min under the condition of 25 degrees of Celsius using MASS2 (Sierra SPR-32; Bruker). The data were analyzed with Software R3.

Row | Binder | Kd
1 | B1 | 48 nM
2 | B2 | 15 nM
3 | B3 | 297 nM
4 | B4 | 743 nM
5 | B5 | 311 nM
6 | B6 | 1480 nM
7 | B7 | 219 nM
8 | B8 | 4390 nM
9 | B9 | 716 nM
10 | B10 | 293 nM
11 | B11 | 2860 nM
12 | B12 | 1150 nM

These binders were tested against T2, human GUCY2C-rCD4 fusion protein (assay: ELISA (DELFIA), antigen on streptavidin plate, scFv culture solution, Eu-anti-tag Ab).
Method: (§1) More specifically, GUCY2C-rCD4 fusion protein, in which the prepared human GUCY2C (SEQ ID NO: 112), monkey GUCY2C (SEQ ID NO: 114), and mouse GUCY2C (SEQ ID NO: 113) were fused, respectively, was bound to a place coated with streptavidin in a Nunc Maxisorp™96 well plate. After removing all the synthetic proteins not combined with washing buffer, the anti-GUCY2C scFV obtained in the culture solution was incubated in each well. After that, the affinity was measured by reading signals DELFIA enhanced using Eu-anti-tag Ab.

Row | Binder | Binding ELISA signal
13 | B1 | 55400
14 | B2 | 83900
15 | B3 | 38200
16 | B4 | 48300
17 | B5 | 51000
18 | B6 | 49500
19 | B7 | 59200
20 | B8 | 43000
21 | B9 | 63100
22 | B10 | 68600
23 | B11 | 34400
24 | B12 | 37500

Target: T1, monkey GUCY2C-rCD4 fusion protein
Assay: as above
Method: as §1

Row | Binder | Binding ELISA signal
25 | B1 | 37200
26 | B2 | 49200
27 | B6 | 32300
28 | B12 | 21600

Each binder was assayed against T2, human GUCY2C-rCD4 fusion protein (assay: ranking ELISA (DELFIA), 5 nM scFv on anti-FLAG, biotinylated antigen, streptavidin-Eu).
Method: (§2) More specifically, after coating an anti-FLAG antibody in a MaxiSorb plate and binding by adding scFvs obtained previously, the remaining scFvs were removed by a washing process. Here, a biotinylated human-GUCY2C-rCD4 protein was incubated and combined, and then the affinity to the antigen was measured by reading signals by DELFIA enhancement with color development through streptavidin-Europlum.

Row | Binder | Affinity Ranking ELISA (5 nM) signal
29 | B1 | 81200
30 | B2 | 133000
31 | B3 | 28100
32 | B4 | 33400
33 | B5 | 30400
34 | B6 | 11000
35 | B7 | 36000
36 | B8 | 18300
37 | B9 | 35100
38 | B10 | 25900
39 | B11 | 12500
40 | B12 | 3090

Each binder was assayed against T2, human GUCY2C-rCD4 fusion protein (assay: ranking ELISA (DELFIA), 50 nM scFv on anti-FLAG, biotinylated antigen, streptavidin-Eu).
Method: as §2

Row | Binder | Affinity Ranking ELISA (50 nM) signal
41 | B1 | 243000
42 | B2 | 184000
43 | B3 | 151000
44 | B4 | 168000
45 | B5 | 173000
46 | B6 | 86300
47 | B7 | 199000
48 | B8 | 131000
49 | B9 | 185000
50 | B10 | 139000
51 | B11 | 105000
52 | B12 | 29500

These binders were tested against T3, GUCY2C on the cell surface (T84 colon carcinoma cells; HT29-GUCY2C cells) (human, UniProt P25092 24-1073) (assay: flow cytometry, scFv(-Fc) at 10 ug/mL on GUCY2C-positive T84 cells, detected with IgG-Fc-PE Ab (FL2-H)).
T3 construct: whole, on cells; also called GUCY2C expressing T84 cells; HT29 GCC cells
Method: Using cells naturally expressing GUCY2C, whether 18 kinds of scFvs produced in Example 1 could actually detect GUCY2C expression on the cell surface was confirmed. For this, a GUCY2C positive cancer cell, T84 colon carcinoma cell (ATCC® CCL248™) was used.
After separating the two cell lines using trypsin-EDTA, they were placed in FACS buffer (1×PBS+2% BSA). 10 ug/mL of each of the 18 kinds of scFvs and positive control group, 5F9 scFv was cultured with T84 and T-47D cells on ice for 1 hour. The scFv combined to cells was detected using 5 ug/mL IgG-Fc-PE Ab (BioLegend; 409304). The cells were cultured with ToPro®3 (live/dead stain) and then red with a flow cytometer.

Row | Binder | binding result
53 | B1 | binds
54 | B2 | binds
